The values that follow come from patent publication US20070258981A1 (published 2007).

The target of assay [1] is T1, human CD22 (hCD22) expressed on the cell surface (human, UniProt P20273 20-847).
T1 construct: whole, on cells; Used as capture agent in the BHK-CD22 cell ELISA and as target in flow cytometry; also called BHK-CD22; hCD22 expressing CHO cells
In words: BHK-CD22 cell ELISA.

The target of assay [2] is hCD22 immobilised on a CM5 sensor chip (BIAcore ligand) (human, UniProt P20273 20-687, limits assumed). In words: BIAcore 3000 SPR; hCD22 amine-coupled to CM5 chip, IgG injected; global 1:1 fit. As for the experimental part:
Binding affinity of HB22.7 and RHOv2ACD/RKA were determined on a BIAcore 3000 instrument (BIAcore, Inc., Uppsala, Sweden). The ligand, hCD22, was prepared at 50 nM in 10 mM NaOAc, pH4 buffer. It was injected onto an EDC/NHS-activated CM5 sensor chip (BIAcore, Inc. Uppsala, Sweden) using a standard immobilization protocol. Following this, any unreacted active ester moieties were quenched using 1M Et-NH2 (ethanolamine; coupling reagents purchased from BIAcore, Inc.). A total of 535 and 689 RUs hCD22 remained bound to two sensor chip surfaces used in these experiments. Separately, a blank surface was prepared on each sensor chip using the identical protocol (minus protein). The blank surfaces were used as a reference cell in the experiments, and served to correct for both non-specific binding and some housekeeping artifacts.
For the kinetic experiments, HB22.7 and RHOv2ACD/RKA were prepared as two dilution series, starting at 22 nM and 100 nM, then diluted three- and two-fold, respectively, down to final concentrations of 0.03 nM and 0.39 nM in HBS-EP buffer (BIAcore, Inc., consisting of the following: 10 mM HEPES buffer, pH7.4, 150 mM NaCl, 3 mM EDTA, and 0.005% P20). Each concentration of IgG was then injected over both the CD22 and reference cell surfaces, which are connected in series. Between injections, surfaces were regenerated with a 1-minute injection of 3M MgCl2.

For assay [3], the target named is T1, human CD22 (hCD22) expressed on the …. In words: binding to BHK-hCD22 cells. As for the experimental part: The ability of chHB227 and its humanized variants to bind hCD22 was assessed in a cell based CD22 binding assay utilizing BHK cells expressing cell-surface human CD22 as a capture agent. Untransfected BHK cells not expressing hCD22 served as a control for non-specific binding. The BHK and BHK-CD22 lines were grown in DMEM supplemented with 10% Fetal Clone I and antibiotics. G418/Geneticin (0.75 mg/ml) was also added to the growth medium for BHK-CD22 only. The standard NCI protocol was used for the binding assay.

Numbering of substitutions follows the chain as printed. Names and notes keep the numbering of the source.

B1: humanized antibody HB227RHF + HB227RKC (antibody, V domains shown)
VH: QVQLQESGPALVKPTQTLTLTCTVSGFSLSDYGVNWIRQPPGKALEWLGIIWGDGRTDYNSALKSRLSISKDNSKNQVVLRMTNVDPVDTATYFCARAPGNRAMEYWGQGTVVTVSS
VL: DIVMTQSPSSLSASVGDRVTITCKASQSVTNDVAWYQQKPGKAPKLLIYYASNRYTGVPDRFSGSGYGTDFTLTISSLQPEDFATYFCQQDYRSPWTFGGGTKVEIKR
notes: Human IgG1/kappa, COS-7 supernatant; also called RHF+RKC; humanized (RHF+RKC) antibody
On to B1, for which the binding result in assay [1] was “binds”.

B2: antibody of chimeric HB22.7 heavy chain (chH) with HB227RKA light chain variable region (antibody, V domains shown)
VH: QVQLKESGPGLVAPSQSLSITCTVSGFSLSDYGVNWVRQIPGKGLEWLGIIWGDGRTDYNSALKSRLNISKDNSKSQVFLKMNSLKADDTARYYCARAPGNRAMEYWGQGTSVTVSS
VL: DIVMTQSPSSLSASVGDRVTITCKASQSVTNDVAWYQQKPGKAPKLLIYYASNRYTGVPSRFSGSGSGTDFTLTISSLQPEDFATYYCQQDYRSPWTFGGGTKVEIK
notes: Human IgG1/kappa, COS-7 supernatant; VL entry may include the DPK018 leader; also called chH+RKA
B2: in assay [1], the binding result is recorded as “binds”.

B3: humanized anti-hCD22 antibody RHOv2ACD/RKA (antibody, V domains shown)
VH: QVQLEESGGGVVRPGRSLRLSCAASGFTFSDYGVNWIRQAPGKGLEWVTIIWGDGRTDYNSALKSRFTVSRNNSNNTLSLQMNSLTTEDTAVYYCVRAPGNRAMEYWGQGVLVTVSS
VL: B2 VL
modifications: Labelled with Alexa Fluor 488 or 647 in some flow cytometry assays; unlabelled IgG in the BIAcore runs.
notes: VH keeps only the D30S back mutation; Labelled with Alexa Fluor 488 or 647 in some flow cytometry assays; also called HB227RHOv2ACD + HB227RKA; RHOvACD/RKA
On to B3, for which, in assay [2], binding was characterised by a dissociation constant (Kd) of 22 nM; the off-rate (koff) – broadly, a measure of how fast the partners let go of each other – worked out at 0.00069 s⁻¹; the kon (in general, the second-order rate constant of association) stood at 32000 M⁻¹ s⁻¹.

B4: humanized antibody HB227RHOv2ABCD + HB227RKA (antibody, V domains shown)
VH: B3 VH with S30D
VL: B2 VL
notes: VH without back mutations; Human IgG1/kappa, COS-7 supernatant; also called RHOv2ABCD+RKA
Regarding B4, the binding result in assay [3] was “binds”.
